Measured values from article PMC10269165 (Antimicrobial Agents and Chemotherapy, 2023).

Key:
[1] = system: LacZ-complemented pem1Δ/pem2Δ S. cerevisiae; assay: Growth inhibition of complemented yeast; type: cell-based, Saccharomyces cerevisiae; conditions: medium with choline
Procedure: (§1) To determine the effect of PMT inhibitors on the growth of PMT- and LacZ-complemented pem1Δpem2Δ S. cerevisiae, the yeast cells were first starved of choline as described above, and the cells were diluted to an OD600 of ~0.6. The PMT-complemented yeast cells were cultured in SG medium (3.4g/L yeast nitrogen base without amino acids, 2% galactose, 30 mg/L histidine, 100 mg/L leucine, 100 mg/L adenine, and 50 mg/L tryptophan) supplemented with 1 mM ethanolamine hydrochloride, while the LacZ-complemented yeast cells were cultured in SG medium supplemented with 1 mM choline chloride. Compounds that depicted cross-inhibitory activity against PMT proteins in vitro were added at various concentrations to the cultures. As a negative control, DMSO (at a final concentration not exceeding 2% [vol/vol]) was added to yeast cultures designated control cultures. The cultures were incubated at 30°C with shaking at 275 rpm for 4 days. On a daily basis during the course of culture, 200-μL portions of culture aliquots were taken, and their OD600s were measured using a microplate reader. In preliminary work, we had observed that the growth of PMT- and LacZ-complemented pem1Δpem2Δ S. cerevisiae plateaued at 3 to 4 days of culture. Therefore, to determine the inhibitory effect of nematode PMT inhibitors on the growth of PMT- and LacZ-complemented pem1Δpem2Δ S. cerevisiae, measurements taken on day 3 were used. The results were presented as percentage of growth rate using the following formula: PGR = growth rate (plus inhibitor)/growth rate (minus inhibitor) × 100 where the percent growth rate (PGR) is the growth rate of inhibitor-treated PMT- or LacZ- complemented Pem1Δpem2Δ S. cerevisiae, considering the growth rate of untreated PMT- or LacZ- complemented Pem1Δpem2Δ S. cerevisiae is 100%; the growth rate = ΔA600^Day 3/ΔA600^Day 0; ΔA600^Day 0 is the absolute value of A600 of PMT- or LacZ- complemented pem1Δ/pem2Δ S. cerevisiae at day 0, which equals the A600 of the culture minus the A600 of the growth medium only; ΔA600^Day 3 is the absolute value of the A600 of PMT- or LacZ complemented pem1Δ/pem2Δ S. cerevisiae at day 3, which equals the A600 of the culture at day 3 minus the A600 of growth medium only; the growth rate (plus inhibitor) is the growth rate of PMT- or -LacZ complemented pem1Δpem2Δ S. cerevisiae in the presence of test compound; and the growth rate (minus inhibitor) is the growth rate of the PMT- or LacZ complemented pem1Δ/pem2Δ S. cerevisiae in the absence of test compound, but with a volume of DMSO equal to that of compound added in the treated culture. The dose-response curves were generated with GraphPad Prism software and IC50 concentrations of the compounds in PMT- and LacZ-complemented yeast cells derived.

[2] = system: PMT-complemented mutant yeast; assay: Growth inhibition of complemented yeast (statement on PMT-complemented strains together); type: cell-based, Saccharomyces cerevisiae; conditions: various concentrations
Procedure: as §1

AcPMT1 = AcPMT1 (Ancylostoma duodenale, UniProt A0A0C2DEB6); assay: PMT enzyme kinetics, fluorescence methyltransferase assay; type: biochemical; conditions: on phosphoethanolamine
Procedure: (§2) We customized a commercial methyltransferase HT activity assay kit (ENZO) for use of recombinant PMT proteins as enzymes, S-adenosyl-L-methionine (SAM) as the methyl donor, and PE as the substrate, as reported previously ([27]). […] Briefly, the reaction mixture contained 2.5 μL of the kit SAM-free methyltransferase reaction buffer, 3 μL of 10 mM PE solution (pH 7.5), 15 μL of 1 mM SAM solution (pH 7.8), and 1× transferase assay buffer to a final volume of 25 μL. Various concentrations (25-μL total volume) of recombinant PMT protein were added to reactions.
(§3) To determine the enzyme kinetic parameters on SAM, fixed concentrations of PMT recombinant proteins (between 15 and 100 ng/μL, depending on the derived optimal concentration) and PE (200 μM) were used in the reactions, with various concentrations of SAM (0 to 160 μM). On the other hand, to determine the enzyme kinetic parameters on PE, fixed concentrations of PMT recombinant proteins (between 15 and 100 ng/μL, depending on the derived optimal concentration) and SAM (100 μM) were used, with various concentrations of PE (0 to 250 μM).
(§4) For normalization, instead of purified protein, 25 μL of 100 μM S-(5′-adenosyl)-L-homocysteine (SAH) as a positive control, 25 μL of dialysis buffer as a negative control, and 25 μL of 1× transferase assay buffer as a blank control were added to the respective reaction mixtures. The reactions were prepared in triplicate wells using black flat-bottomed 96-well plates. Detection buffer (100 μL) was added into each reaction, yielding a final reaction volume of 150 μL. The plates were covered in aluminum foil and incubated at room temperature with shaking for 30 min, and fluorescence read at 380EX/520EM using a SpectraMax Gemini EM microplate reader (Molecular Devices). Sample readouts were normalized with positive and negative controls.

AsPMT = AsPMT (Ascaris suum, UniProt F1L4B9); assay: as above; type: biochemical; conditions: on phosphoethanolamine
Sequence of AsPMT (F1L4B9 entry or part of it): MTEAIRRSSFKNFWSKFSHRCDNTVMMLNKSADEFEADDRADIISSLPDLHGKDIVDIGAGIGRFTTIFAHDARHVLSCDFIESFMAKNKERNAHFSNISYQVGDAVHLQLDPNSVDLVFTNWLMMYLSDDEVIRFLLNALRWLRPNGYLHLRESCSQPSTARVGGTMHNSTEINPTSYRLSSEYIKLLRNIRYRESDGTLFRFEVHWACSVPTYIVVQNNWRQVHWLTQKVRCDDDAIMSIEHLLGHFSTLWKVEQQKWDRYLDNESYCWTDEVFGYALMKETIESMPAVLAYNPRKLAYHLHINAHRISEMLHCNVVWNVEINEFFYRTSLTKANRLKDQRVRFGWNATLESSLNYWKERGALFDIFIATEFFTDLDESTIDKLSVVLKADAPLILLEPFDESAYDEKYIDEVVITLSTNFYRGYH
Procedure: as §2, §3, §4

DvPMT1 = DvPMT1 (Dictyocaulus viviparus, UniProt A0A0D8Y714); assay: as above; type: biochemical; conditions: on phosphoethanolamine
Procedure: as §2, §3, §4

HcPMT1 = HcPMT1 (Haemonchus contortus, UniProt U5HK46); assay: as above; type: biochemical; conditions: on phosphoethanolamine
Procedure: as §2, §3, §4

OdPMT = OdPMT (Oesophagostomum dentatum, UniProt A0A0B1TAL6); assay: as above; type: biochemical; conditions: on phosphoethanolamine
Procedure: as §2, §3, §4

TcPMT = TcPMT (Toxocara canis, UniProt A0A0B2VTW9); assay: as above; type: biochemical; conditions: on phosphoethanolamine
Procedure: as §2, §3, §4

[3] = substrate: C[S+](CC[C@H](N)C(=O)[O-])C[C@H]1O[C@@H](n2cnc3c(N)ncnc32)[C@H](O)[C@@H]1O; assay: as above; type: biochemical, Ancylostoma duodenale; conditions: other: on S-adenosyl-L-methionine
Procedure: as §2
(§5) To determine the enzyme kinetic parameters on SAM, fixed concentrations of PMT recombinant proteins (between 15 and 100 ng/μL, depending on the derived optimal concentration) and PE (200 μM) were used in the reactions, with various concentrations of SAM (0 to 160 μM). […]
as §4, with “The reactions were prepared in triplicate wells using black flat-bottomed 96-well plates. Detection buffer (100 μL) was added into each reaction, yielding a final reaction volume of 150 μL.” left out

[4] = substrate: C[S+](CC[C@H](N)C(=O)[O-])C[C@H]1O[C@@H](n2cnc3c(N)ncnc32)[C@H](O)[C@@H]1O; assay: as above; type: biochemical, Oesophagostomum dentatum; conditions: other: on S-adenosyl-L-methionine
Procedure: as §2, §3, §4

[5] = substrate: C[S+](CC[C@H](N)C(=O)[O-])C[C@H]1O[C@@H](n2cnc3c(N)ncnc32)[C@H](O)[C@@H]1O; assay: as above; type: biochemical, Dictyocaulus viviparus; conditions: other: on S-adenosyl-L-methionine
Procedure: as §2, §3, §4

[6] = substrate: C[S+](CC[C@H](N)C(=O)[O-])C[C@H]1O[C@@H](n2cnc3c(N)ncnc32)[C@H](O)[C@@H]1O; assay: as above; type: biochemical, Haemonchus contortus; conditions: other: on S-adenosyl-L-methionine
Procedure: as §2, §5
as §4, with “The reactions were prepared in triplicate wells using black flat-bottomed 96-well plates. Detection buffer (100 μL) was added into each reaction, yielding a final reaction volume of 150 μL.” left out

[7] = substrate: C[S+](CC[C@H](N)C(=O)[O-])C[C@H]1O[C@@H](n2cnc3c(N)ncnc32)[C@H](O)[C@@H]1O; assay: as above; type: biochemical, Toxocara canis; conditions: other: on S-adenosyl-L-methionine
Procedure: as §2, §3, §4

CC[C@H]1NC(=O)[C@@H](NC(=O)c2ncccc2O)[C@@H](C)OC(=O)[C@H](c2ccccc2)NC(=O)[C@@H]2CC(=O)CCN2C(=O)[C@H](Cc2ccccc2)N(C)C(=O)[C@@H]2CCCN2C1=O [NSC177858]
effect on LacZ-expressing mutant yeast [1]: no or negligible inhibitory effect | effect on the growth of PMT-complemented mutant yeast [2]: concentration-dependent inhibitory effect

NCCOP(=O)(O)O [phosphoethanolamine]
kcat (AcPMT1): 7,071.00 ± 1,141.00 min^−1 | Km (AsPMT): 99.9 ± 36.6 µM | kcat (AsPMT): 3.2383 ± 0.49 s⁻¹ | Km (DvPMT1): 308 ± 41.7 µM | kcat (DvPMT1): 16.113 ± 1.61 s⁻¹ | Km (HcPMT1): 73.4 ± 54.9 µM | kcat (HcPMT1): 1,066.30 ± 72.70 min^−1 | Km (OdPMT): 81 ± 12.8 µM | kcat (OdPMT): 5.5833 ± 0.3603 s⁻¹ | Km (TcPMT): 85 ± 77.8 µM | kcat (TcPMT): 10.412 ± 3.6983 s⁻¹

B1: AcPMT1 (Ancylostoma duodenale) (protein)
chain: MEERSVDLVFTNWLMMYLSDREVIEFLFNAMRWLRADGYMHLRESCSEPSTGRAKSSTMHSNTDSNPTHYRFSSLYIKLLRAIRYRDNDGKVWRFDVQWSCSVPTYIKRSNNWRQVHWLTKKVSADGDDETTINDLLKLFSQTWYTEQVAWDAKLDNEKYVWTDKIFSNAIDNEVVPKNSTAYVFTPRKMSPYLHINSHLLAEKFTCNVWNVEMNENFYRTSLTKANNQKDQRVRFGWNESLASSIDYWTQRDASFDCLIGTELLSTNGDESIKRIASIMKPEAKIVLLEPVDDVAEQAIKERMASCGFKNISVVDVTEECKAAEAAYANDHNLAFLFIEL
Km [3]: 27.33 ± 3.58 µM | kcat/Km [3]: 1.98e+06 M⁻¹ s⁻¹

B2: OdPMT (Oesophagostomum dentatum) (protein)
chain: MIFQKRFTTVLAETARWVHSTDFIESFIAKNQERNAHLGNISYQIGDAVHLQMDEKSVDLVFTNWLMMYLSDREVIEFLFNAMRWLRADGYMHLRESCSEPSTGRSKSATMHTSAEANPTHYRFSSLYIKLLRALRYQDSDGKVWRFDVQWSCSVPTYIRFFSETWRAEQIAWDAKLDKEQYVWTDKIFSNVLDSAVVPKNSTAYVFTPRRRSPYLHVNSHLLADKFTCNVWNVELNENFYRTSLTKANNQKDQRVRFGWNETLASSIDYWTQRDGSFDCLIATELLSTSDDESIKSIASIMKPEAKCVLLEPVDEVNEAVIKARMSSCGFKNVSVMDVTEDCKAAEAAYASDHNLQIDPSNCSYVLINASL
Km [4]: 48.95 ± 7.07 µM | Vmax [4]: 3.13 ± 0.204 µmol/min/mg | kcat [4]: 45.4 ± 2.96 s⁻¹ | kcat/Km [4]: 927000 M⁻¹ s⁻¹

B3: DvPMT1 (Dictyocaulus viviparus) (protein)
chain: MSQGMRHADAVIYGEYDNGRRMKENELKGEHIKNYRTTYDENSFNNTMAVEVRRDLFKTFWDRYSDKPDTNSMMLNHTANDLDASDRADILSSLPHLGNKDVVDIGAGIGRFTTVLANTARWVHSTDFIESFIAKNQERNAHLGNISYQIGDAVNLQMNERSVDLVFTNWLMMYLSDHEVIEFLFNAMRWLRPDGYLHLRESCSEPSTACSKTATMHSSAEANPTHYRFSSLYIKLLRTIRYRDNSGKLWKFDVQWSCSVPTYIQRSNNWRQVHWLTRKVPANNGDTDTSISLLLNLFSQIWPAEQVEWDLKLNIESYVWTDRVFSNAINDEVVPRNGTALVFTPRKRSPYLHVNSHLLAEKFTCNVWTVETNEYYYRTSLTKANHEKNHRVRFGWNESLTSSIDYWSQRDASFDCLISTELLSTNSDDEIKRITRMIGCGFKHVNILDVTNDSRTAEVMFYSEHSINAEPLGCTFLLISATL
Km [5]: 35.02 ± 5.05 µM | Vmax [5]: 0.445 µmol/min/mg | kcat [5]: 3.96 ± 0.214 s⁻¹ | kcat/Km [5]: 113000 M⁻¹ s⁻¹

B4: HcPMT1 (Haemonchus contortus) (protein)
chain: MTAEVRRDSFKTFWDKYSDKPDTNSMMLNQTAQDLEASDRADILSSLPHLTNKDVVDIGAGIGRFTTVLAETARWVLSTDFIESFIEKNQERNAHMGNISYQIGDAVHLQMDEKSVDLVFTNWLMMYLSDREVIEFLLNAMRWLRADGYIHLRESCSEPSTGRLKTATMHSAVDANPTHYRFSSLYIKLLRAIRYRDSDGKMWKFDVQWSCSVPTYIRRCNNWRQVHWLTKKVPAVGDEETSVDDLLNLFSQIWPAEQKTWDEKLDNEKYSWTDKIFSNAIDDEVVPKNSTAYVFTPRQRSPFLHVNSHLLAEKFTCNVWNVETKEYLYRTSLTKANNQKDQRVRFGWNESLSSSIDYWNQRDASFDCMVATELLATCDDESINSIASIMKPEAKVVLLEPVSGIDETSVRQRMTTCGFKNITIVDVTQESLNAEVSFIKDHNLDVELSGCNYLLIKASL
Km [6]: 18.34 ± 3.80 µM | kcat/Km [6]: 3.91e+06 M⁻¹ s⁻¹

B5: TcPMT (Toxocara canis) (protein)
chain: MPRLNQKAKTFRDFLDTTQYTDEGIRAYEWIFGENFISPGGYNENLLVLKRLGELKPDSRMLDIGVGIGGGARQAAKEFGLLVLGIDISANMLSIAMDRLQVEKDTRIRYQICNAVDYQFPSNSFDYIVSRDGLHHNEHIDIVMKNIFKWLKPGGKALITIYGKGHGAPKTKFQAYVENRKYHLKTLEQMVQVTKDAGFENVQGTNLTKRLRDILIEERTRALARKGRFLEDFSEETFNSLLEGWNDKIDFIDDDNQTWLQIIATKPL
Km [7]: 20.31 ± 2.23 µM | Vmax [7]: 1.08 ± 0.0324 µmol/min/mg | kcat [7]: 10.9 ± 0.327 s⁻¹ | kcat/Km [7]: 539000 M⁻¹ s⁻¹
